We go through four molecules from patent EP4722246A1, “TEM8-TARGETED ANTIBODY OR ANTIGEN-BINDING FRAGMENT THEREOF, AND USE THEREOF” (Inxmed (Nanjing) Co., Ltd., priority 2023, dated 2024).

The experiment concerns the target hTEM8-his antigen (hTEM8 containing 6 His tags) (human) (UniProt Q9H6X2). Kind of experiment: phage supernatant ELISA on hTEM8-his. (ELISA stands for enzyme-linked immunosorbent assay.)

hTEM8-his antigen (hTEM8 containing 6 His tags) (human), sequence (Q9H6X2 33-321 limits assumed): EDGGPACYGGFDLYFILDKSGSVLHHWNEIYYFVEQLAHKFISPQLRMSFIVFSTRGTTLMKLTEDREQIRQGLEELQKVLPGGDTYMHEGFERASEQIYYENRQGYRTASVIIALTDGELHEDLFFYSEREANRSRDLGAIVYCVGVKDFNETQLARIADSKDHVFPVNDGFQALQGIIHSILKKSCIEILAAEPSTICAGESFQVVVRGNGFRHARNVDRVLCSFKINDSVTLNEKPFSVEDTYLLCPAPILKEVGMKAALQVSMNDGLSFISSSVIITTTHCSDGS

B1: phage clone 3B3 (scFv on phage) (scFv, V domains shown)
VH: EVQLVQSGGGLVKPGGSLRLSCAASGFTFSSYSMNWVRQAPGKGLEWVSSISSSSSYIYYADSVKGRFTISRDNAKNSLYLQMNSLRAEDTAVYYCARVRPPYGMDVWGQGTLVTVSS
VL: NIQMTQSPSSVSASVGDTVTISCRASQGISNWLGWYQQRPGEAPKLLIYAASHLQSGVPSRFSGSGSGTDFVLTITSLQPEDFATYYCQQSNSFPLAFGGGTKLEIK
For the molecule B1, the hTEM8-his ELISA (OD450) is 2.86 OD450.

B2: phage clone 7E3 (scFv on phage) (scFv, V domains shown)
VH: QVQLVESGGGLVNPGGSLRLSCAVSGFTSSGFSINWVRQAPGKGLEWVSSISGIGDSIFYADSVKGRFTISRDNAKNLVFLQMNSVKAEDTAVYYCVRDKWGWGTYSLFDYWGQGTLVTVSS
VL: QAVLTQPPSASGTPGQRVTISCSGSSSNIASNVVSWYQQLPGTAPKVLIYSNNRRPSGVPDRFSGSKSGASASLAISGLQSDDETHYYCAAWDDSLKGPVFGGGTQLTVL
B2: the hTEM8-his ELISA (OD450) worked out at 2.5 OD450.

B3: phage clone 11B7 (scFv on phage) (scFv, V domains shown)
VH: QVQLVQSGGGVVQPGRPLRLSCAASGFNLGSYAMSWVRQAPGKGLEWVSAISGSGGSTYYADSVKGRFTISRDNSKNTLYLQMNSLRAEDTAVYYCAKILGPGNLNYYYYYGMDVWGQGTTVTVSS
VL: SSELTQDPAVSVALGQTVRITCQGDSLRNSYASWYQQKPGQAPVLVIYGNNNRPSGIPDRVSGSRSGNTASLTITGAQAEDEADYYCNSRDSSGNHVVFGGGTELTVL
For the molecule B3, the hTEM8-his ELISA (OD450) amounted to 2.43 OD450.

B4: phage clone 6A6 (scFv on phage) (scFv, V domains shown)
VH: EVQLVESGGGVVQPGGSLRLSCAASGFTFDDYAMHWVRQAPGKGLEWVSLISGDGGSTYYADSVKGRFTISRDNSKNSLYLQMNSLKASDTAMYYCARPRWGRYSSSWPFDYWGQGTLVTVSS
VL: QSALTQPASVSGSPGQSITISCTGTSSDVGTYNYVSWYQQHPGKAPKLMIYDVTDRPSGISNRFSGSKSGNTASLTISGLQAEDEGNYYCSSYTSNRSWVFGGGTKLTVL
For B4, the hTEM8-his ELISA (OD450) came to 2.67 OD450.
